Biological target: NTD (SARS-CoV-2) (UniProt P0DTC9)
Assay: fluorescence anisotropy
Settings: Anisotropy: 50 mM Na phosphate pH 6.5, 150 mM NaCl, 1 mM NaN3, 50 nM RNA; EMSA: 20 mM Tris pH 7.5, 150 mM NaCl, 1 mM DTT, room temp, 25 uM RNA; NTD NMR: 20 mM …

“GGCACAUGGACGUC / GACGUCCAUGUGCC [ds-14mer]” was tested, and the Kd was 30 µM.

Source: publication PMC10605006
